doi:10.1101/2020.06.06.138156 (bioRxiv, 2020)

Target: T1, GST-His-hnRNP L RRM2 (162-321) (human, UniProt P14866 162-321)
T1 sequence: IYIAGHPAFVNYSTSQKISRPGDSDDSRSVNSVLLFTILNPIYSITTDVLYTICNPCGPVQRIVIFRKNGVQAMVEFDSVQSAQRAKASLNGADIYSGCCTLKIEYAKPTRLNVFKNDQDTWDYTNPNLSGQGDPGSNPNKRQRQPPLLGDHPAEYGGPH
Experiment: pull-down

B1: FLAG-SETD2 SHI (2114-2263) (domain or fragment)
chain: NKLSTEERRKLFEQEVAQREAQKQQQQMQNLGMTSPLPYDSLGYNAPHHPFAGYPPGYPMQAYVDPSNPNAGKVLLPTPSMDPVCSPAPYDHAQPLVGHSTEPLSAPPPVPVVPHVAAPVEVSSSQYVAQSDGVVHQDSSVAVLPVPAPG
binding result: binds
